This is an account of results in PMC11231019, “A pH-dependent shift of redox cofactor specificity in a benzyl alcohol dehydrogenase of aromatoleum aromaticum EbN1” (Applied Microbiology and Biotechnology, 2024).

Data set [1] has as its target T1, BaDH (benzyl alcohol dehydrogenase) (Aromatoleum aromaticum, UniProt Q5P459).
T1 construct: gene adh; full-length, C-terminal Twin-Strep-tag kept, expressed in E. coli BL21(DE3), Strep-tactin purified; Zn (catalytic) and Zn/Fe (structural)
T1 sequence (Q5P459 1-362): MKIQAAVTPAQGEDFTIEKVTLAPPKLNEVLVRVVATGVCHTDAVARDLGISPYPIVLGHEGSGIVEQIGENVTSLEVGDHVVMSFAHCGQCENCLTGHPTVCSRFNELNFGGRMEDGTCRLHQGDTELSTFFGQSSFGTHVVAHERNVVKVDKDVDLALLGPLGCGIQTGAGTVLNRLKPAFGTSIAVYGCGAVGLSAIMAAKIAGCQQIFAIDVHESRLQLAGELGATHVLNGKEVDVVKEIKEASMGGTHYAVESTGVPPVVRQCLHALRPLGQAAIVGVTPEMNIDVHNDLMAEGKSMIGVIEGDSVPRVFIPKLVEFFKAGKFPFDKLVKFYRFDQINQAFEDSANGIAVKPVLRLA
Nature of the data set: photometric NADH formation, […] nm; Michaelis-Menten with substrate inhibition fit. It counts as biochemical. The following applies: substrate inhibition constant; NAD+, pH 8.0, 30 °C.

Substrate in data set [2]: NC(=O)c1ccc[n+]([C@@H]2O[C@H](COP(=O)(O)OP(=O)(O)OC[C@H]3O[C@@H](n4cnc5c(N)ncnc54)[C@H](O)[C@@H]3O)[C@@H](O)[C@H]2O)c1
Put plainly: photometric NADH formation; Michaelis-Menten fit. The data set is classed as biochemical, Aromatoleum aromaticum. The settings on record: apparent, fixed benzyl alcohol, pH 8.0, 30 °C, varied: cofactor. An excerpt:
photometric NADH formation; Michaelis-Menten fit on BaDH (benzyl alcohol dehydrogenase)

Substrate in data set [3]: O=Cc1ccccc1
Put plainly: photometric NADH consumption; Michaelis-Menten with substrate inhibition fit. It counts as biochemical, Aromatoleum aromaticum. The following applies: apparent, reduction with NADH, pH 7.0, 30 °C, Kis constrained to >= Km, kcat called overestimated by authors. From the text: photometric NADH consumption; Michaelis-Menten with substrate inhibition fit on BaDH (benzyl alcohol dehydrogenase)

Substrate in data set [4]: NC(=O)C1=CN([C@@H]2O[C@H](COP(=O)(O)OP(=O)(O)OC[C@H]3O[C@@H](n4cnc5c(N)ncnc54)[C@H](OP(=O)(O)O)[C@@H]3O)[C@@H](O)[C@H]2O)C=CC1
Nature of the data set: photometric NADPH consumption; Hill fit with substrate inhibition. It counts as biochemical, Aromatoleum aromaticum. The following applies: apparent, fixed benzaldehyde, pH 5.5, 30 °C, cooperative, Hill n 1.38, Kis constrained to Km, kcat called overestimated by authors, varied: cofactor. From the text: photometric NADPH consumption; Hill fit with substrate inhibition on BaDH (benzyl alcohol dehydrogenase)

Substrate in data set [5]: NC(=O)C1=CN([C@@H]2O[C@H](COP(=O)(O)OP(=O)(O)OC[C@H]3O[C@@H](n4cnc5c(N)ncnc54)[C@H](O)[C@@H]3O)[C@@H](O)[C@H]2O)C=CC1
Put plainly: purified protein. The data set is classed as biochemical, Aromatoleum aromaticum. The following applies: apparent, fixed benzaldehyde, pH 7.0, 30 °C, extrapolated, saturation not reached, probably underestimated per authors (text: no reliable constants), varied: cofactor.

Substrate in data set [6]: OCc1ccccc1
Put plainly: purified protein. The data set is classed as biochemical, Aromatoleum aromaticum. The following applies: apparent, oxidation with NAD+, pH 8.0, 30 °C, substrate inhibition, kcat called overestimated by authors.

Substrate in data set [7]: NC(=O)c1ccc[n+]([C@@H]2O[C@H](COP(=O)(O)OP(=O)(O)OC[C@H]3O[C@@H](n4cnc5c(N)ncnc54)[C@H](OP(=O)(O)O)[C@@H]3O)[C@@H](O)[C@H]2O)c1
Put plainly: photometric NADPH formation; Hill fit with substrate inhibition. It counts as biochemical, Aromatoleum aromaticum. The settings on record: apparent, fixed benzyl alcohol, pH 6.5, 30 °C, cooperative, Hill n 2.44, Kis constrained to Km, kcat called overestimated by authors, varied: cofactor. An excerpt: photometric NADPH formation; Hill fit with substrate inhibition on BaDH (benzyl alcohol dehydrogenase)

For `OCc1ccccc1` [BAlc, benzyl alcohol], in data set [1], the “Kis” value is 4.37 mM.

B1: BaDH (benzyl alcohol dehydrogenase) (Aromatoleum aromaticum EbN1) (protein)
chain: MKIQAAVTPAQGEDFTIEKVTLAPPKLNEVLVRVVATGVCHTDAVARDLGISPYPIVLGHEGSGIVEQIGENVTSLEVGDHVVMSFAHCGQCENCLTGHPTVCSRFNELNFGGRMEDGTCRLHQGDTELSTFFGQSSFGTHVVAHERNVVKVDKDVDLALLGPLGCGIQTGAGTVLNRLKPAFGTSIAVYGCGAVGLSAIMAAKIAGCQQIFAIDVHESRLQLAGELGATHVLNGKEVDVVKEIKEASMGGTHYAVESTGVPPVVRQCLHALRPLGQAAIVGVTPEMNIDVHNDLMAEGKSMIGVIEGDSVPRVFIPKLVEFFKAGKFPFDKLVKFYRFDQINQAFEDSANGIAVKPVLRLA
notes: full-length, C-terminal Twin-Strep-tag kept, expressed in E. coli BL21(DE3), Strep-tactin purified; Zn (catalytic) and Zn/Fe (structural)
Turning to B1, the Km in data set [2] was 1670 µM; in data set [3], 1780 µM; in “purified protein [5]”, 3690 µM; in the data set “purified protein [6]”, 3620 µM. In addition, the Vmax in data set [2] was 84.2 µmol/min/mg; in data set [3], 345 µmol/min/mg; in data set [4] it was 159 µmol/min/mg; in “purified protein [5]”, 320 µmol/min/mg; in “purified protein [6]”, 410 µmol/min/mg; in data set [7], 54.1 µmol/min/mg. The kcat in data set [2] was 58.4 s⁻¹; in data set [3] it was 239 s⁻¹; in data set [4], 110 s⁻¹; in the data set “purified protein [5]”, 222 s⁻¹; in “purified protein [6]”, 693 s⁻¹; in data set [7] it was 37.5 s⁻¹. Also, the kcat/Km was 35000 M⁻¹ s⁻¹ in data set [2]; 134000 M⁻¹ s⁻¹ in data set [3]; 32000 M⁻¹ s⁻¹ in data set [4]; 60000 M⁻¹ s⁻¹ in “purified protein [5]”; 191000 M⁻¹ s⁻¹ in the data set “purified protein [6]”; 16000 M⁻¹ s⁻¹ in data set [7]. Further, the results for the K0.5 in data set [4] and in data set [7] were 3.42 mM and 2.39 mM, respectively.

Usually Km stands for the concentration of substrate that gives half-maximal velocity. As usually defined, the Vmax is the top rate of the reaction or transport when substrate is in excess. In general, kcat refers to the number of substrate molecules converted per active site and unit of time at saturation. In general, kcat/Km refers to the second-order rate constant that governs catalysis at low substrate concentration.
